Assay results published in the Human Domainome abundance scans (Beltran et al. 2025).
± gives the uncertainty stated by the source.

B1: CD2-associated protein, residues 1 to 59; numbered along this chain, Q9Y5K6 (parent)
chain: MVDYIVEYDYDAVHDDELTIRVGEIIRNVKKLQEEGWLEGELNGRRGMFPDNFVKEIKR

Variants of: B1
Experiment: abundance fitness (aPCA) (normalised: wild type 0, dead -1); higher = more abundant; growth selection in yeast, the domain comes from the species named
Details: Homo sapiens

Q: Which abundance fitness does the source give for MVDYIVEYDNDAVHDDELTIRVGEIIRNVKKLQEEGWLEGELNGRRGMFPDNFVKEIKR here?
A: -0.599 ± 0.33

Q: With MVDYIVEYDIDAVHDDELTIRVGEIIRNVKKLQEEGWLEGELNGRRGMFPDNFVKEIKR as the variant, how does the abundance fitness read?
A: -0.812 ± 0.37

Q: With MVDYIVEYDCDAVHDDELTIRVGEIIRNVKKLQEEGWLEGELNGRRGMFPDNFVKEIKR as the variant, how does the abundance fitness read?
A: -0.569 ± 0.22

Q: Which abundance fitness does the source give for MVDYIVEYDQDAVHDDELTIRVGEIIRNVKKLQEEGWLEGELNGRRGMFPDNFVKEIKR here?
A: -1.18 ± 0.31

Q: For MVDYIVEYDKDAVHDDELTIRVGEIIRNVKKLQEEGWLEGELNGRRGMFPDNFVKEIKR, which abundance fitness is on record?
A: -0.322 ± 0.077

Q: Which abundance fitness does the source give for MVDYIVEYDYDAEHDDELTIRVGEIIRNVKKLQEEGWLEGELNGRRGMFPDNFVKEIKR here?
A: -0.058 ± 0.18

Q: With MVDYIVEYDYDAFHDDELTIRVGEIIRNVKKLQEEGWLEGELNGRRGMFPDNFVKEIKR as the variant, how does the abundance fitness read?
A: -0.354 ± 0.22

Q: With MVDYIVEYDYDAMHDDELTIRVGEIIRNVKKLQEEGWLEGELNGRRGMFPDNFVKEIKR as the variant, how does the abundance fitness read?
A: -0.058 ± 0.18

Q: Which abundance fitness does the source give for MVDYIVEYDYDALHDDELTIRVGEIIRNVKKLQEEGWLEGELNGRRGMFPDNFVKEIKR here?
A: -0.188 ± 0.095

Q: For MVDYIVEYDYDAPHDDELTIRVGEIIRNVKKLQEEGWLEGELNGRRGMFPDNFVKEIKR, which abundance fitness is on record?
A: -0.726 ± 0.19

Q: Which abundance fitness does the source give for MVDYIVEYDYDANHDDELTIRVGEIIRNVKKLQEEGWLEGELNGRRGMFPDNFVKEIKR here?
A: -0.164 ± 0.17

Q: With MVDYIVEYDYDAHHDDELTIRVGEIIRNVKKLQEEGWLEGELNGRRGMFPDNFVKEIKR as the variant, how does the abundance fitness read?
A: -0.358 ± 0.47

Q: For MVDYIVEYDYDAKHDDELTIRVGEIIRNVKKLQEEGWLEGELNGRRGMFPDNFVKEIKR, which abundance fitness is on record?
A: -0.074 ± 0.14

Q: For MVDYIVEYDYDAGHDDELTIRVGEIIRNVKKLQEEGWLEGELNGRRGMFPDNFVKEIKR, which abundance fitness is on record?
A: -0.046 ± 0.079

Q: Which abundance fitness does the source give for MVDYIVEYDYDAIHDDELTIRVGEIIRNVKKLQEEGWLEGELNGRRGMFPDNFVKEIKR here?
A: -0.431 ± 0.33

Q: For MVDYIVEYDYDDVHDDELTIRVGEIIRNVKKLQEEGWLEGELNGRRGMFPDNFVKEIKR, which abundance fitness is on record?
A: -0.846 ± 0.44

Q: Which abundance fitness does the source give for MVDYIVEYDYDVVHDDELTIRVGEIIRNVKKLQEEGWLEGELNGRRGMFPDNFVKEIKR here?
A: -1.02 ± 0.24

Q: Which abundance fitness does the source give for MVDYIVEYDYDWVHDDELTIRVGEIIRNVKKLQEEGWLEGELNGRRGMFPDNFVKEIKR here?
A: -0.942 ± 0.22

Q: For MVDYIVEYDYDCVHDDELTIRVGEIIRNVKKLQEEGWLEGELNGRRGMFPDNFVKEIKR, which abundance fitness is on record?
A: -0.35 ± 0.14

Q: For MVDYIVEYDYDLVHDDELTIRVGEIIRNVKKLQEEGWLEGELNGRRGMFPDNFVKEIKR, which abundance fitness is on record?
A: -1.12 ± 0.16

Q: Which abundance fitness does the source give for MVDYIVEYDYDTVHDDELTIRVGEIIRNVKKLQEEGWLEGELNGRRGMFPDNFVKEIKR here?
A: -0.716 ± 0.25

Q: With MVDYIVEYDYDPVHDDELTIRVGEIIRNVKKLQEEGWLEGELNGRRGMFPDNFVKEIKR as the variant, how does the abundance fitness read?
A: -0.591 ± 0.1

Q: For MVDYIVEYDYDRVHDDELTIRVGEIIRNVKKLQEEGWLEGELNGRRGMFPDNFVKEIKR, which abundance fitness is on record?
A: -0.416 ± 0.07

Q: Which abundance fitness does the source give for MVDYIVEYDYDHVHDDELTIRVGEIIRNVKKLQEEGWLEGELNGRRGMFPDNFVKEIKR here?
A: -0.924 ± 0.43

Q: For MVDYIVEYDYDEVHDDELTIRVGEIIRNVKKLQEEGWLEGELNGRRGMFPDNFVKEIKR, which abundance fitness is on record?
A: -0.435 ± 0.18

Q: For MVDYIVEYDYDMVHDDELTIRVGEIIRNVKKLQEEGWLEGELNGRRGMFPDNFVKEIKR, which abundance fitness is on record?
A: -0.842 ± 0.22

Q: Which abundance fitness does the source give for MVDYIVEYDYDSVHDDELTIRVGEIIRNVKKLQEEGWLEGELNGRRGMFPDNFVKEIKR here?
A: -0.157 ± 0.088

Q: With MVDYIVEYDYDYVHDDELTIRVGEIIRNVKKLQEEGWLEGELNGRRGMFPDNFVKEIKR as the variant, how does the abundance fitness read?
A: -1.05 ± 0.4

Q: Which abundance fitness does the source give for MVDYIVEYDYDQVHDDELTIRVGEIIRNVKKLQEEGWLEGELNGRRGMFPDNFVKEIKR here?
A: -0.349 ± 0.12

Q: Which abundance fitness does the source give for MVDYIVEYDYDNVHDDELTIRVGEIIRNVKKLQEEGWLEGELNGRRGMFPDNFVKEIKR here?
A: -0.618 ± 0.22

Q: Which abundance fitness does the source give for MVDYIVEYDYDIVHDDELTIRVGEIIRNVKKLQEEGWLEGELNGRRGMFPDNFVKEIKR here?
A: -0.782 ± 0.21

Q: Which abundance fitness does the source give for MVDYIVEYDYDKVHDDELTIRVGEIIRNVKKLQEEGWLEGELNGRRGMFPDNFVKEIKR here?
A: -0.205 ± 0.14

Q: Which abundance fitness does the source give for MVDYIVNYDYDAVHDDELTIRVGEIIRNVKKLQEEGWLEGELNGRRGMFPDNFVKEIKR here?
A: -0.311 ± 0.17

Q: With MVDYIVSYDYDAVHDDELTIRVGEIIRNVKKLQEEGWLEGELNGRRGMFPDNFVKEIKR as the variant, how does the abundance fitness read?
A: -0.212 ± 0.094

Q: For MVDYIVIYDYDAVHDDELTIRVGEIIRNVKKLQEEGWLEGELNGRRGMFPDNFVKEIKR, which abundance fitness is on record?
A: 0.025 ± 0.15

Q: With MVDYIVTYDYDAVHDDELTIRVGEIIRNVKKLQEEGWLEGELNGRRGMFPDNFVKEIKR as the variant, how does the abundance fitness read?
A: 0.028 ± 0.074

Q: With MVDYIVVYDYDAVHDDELTIRVGEIIRNVKKLQEEGWLEGELNGRRGMFPDNFVKEIKR as the variant, how does the abundance fitness read?
A: 0.008 ± 0.072

Q: For MVDYIVLYDYDAVHDDELTIRVGEIIRNVKKLQEEGWLEGELNGRRGMFPDNFVKEIKR, which abundance fitness is on record?
A: -0.004 ± 0.057

Q: For MVDYIVAYDYDAVHDDELTIRVGEIIRNVKKLQEEGWLEGELNGRRGMFPDNFVKEIKR, which abundance fitness is on record?
A: -0.135 ± 0.079

Q: With MVDYIVQYDYDAVHDDELTIRVGEIIRNVKKLQEEGWLEGELNGRRGMFPDNFVKEIKR as the variant, how does the abundance fitness read?
A: -0.131 ± 0.11

Q: Which abundance fitness does the source give for MVDYIVDYDYDAVHDDELTIRVGEIIRNVKKLQEEGWLEGELNGRRGMFPDNFVKEIKR here?
A: -0.256 ± 0.15

Q: For MVDYIVRYDYDAVHDDELTIRVGEIIRNVKKLQEEGWLEGELNGRRGMFPDNFVKEIKR, which abundance fitness is on record?
A: -0.087 ± 0.074

Q: With MVDYIVHYDYDAVHDDELTIRVGEIIRNVKKLQEEGWLEGELNGRRGMFPDNFVKEIKR as the variant, how does the abundance fitness read?
A: -0.581 ± 0.35

Q: For MVDYIVPYDYDAVHDDELTIRVGEIIRNVKKLQEEGWLEGELNGRRGMFPDNFVKEIKR, which abundance fitness is on record?
A: -0.697 ± 0.13

Q: With MVDYIVYYDYDAVHDDELTIRVGEIIRNVKKLQEEGWLEGELNGRRGMFPDNFVKEIKR as the variant, how does the abundance fitness read?
A: -0.18 ± 0.18
